The values that follow come from PMC9340540, “A heterotypic assembly mechanism regulates CHIP E3 ligase activity” (The EMBO Journal, 2022).

The target in test [1] is CHN-1 (C. elegans). The test can be described thus: cell-based or functional assay.
Test [2] addresses T1, M1 linked linear ubiquitin (di-Ub) (UniProt P0CG48 1-76; P0CG48 1-76).
T1 construct: ubiquitin, first (distal) unit of the M1-linked dimer; ubiquitin, second (proximal) unit, joined by its M1 to G76 of the first unit; also called linear di-Ub; M1 diUb conjugates; source: bought: UbiQ (UbiQ-L01)
The experiment in a line: SPR; Biacore S200, 25°C; His-tagged UFD-2 or His-tagged Ufd2p immobilised on NTA chips at 20 μg/ml; single-cycle kinetics with M1 diUb at 0, 100, 200, 500, 1,000 and 2,000 nM; 10 mM HEPES, 150 mM NaCl, 0.05% Tween 20, 0.1% BSA, 50 μM EDTA, pH 8.0. The following applies: both partners purified. Background: SPR reads the build-up and loss of mass on a sensor chip optically.

CHN-1 (C. elegans), sequence (main, as listed by the source): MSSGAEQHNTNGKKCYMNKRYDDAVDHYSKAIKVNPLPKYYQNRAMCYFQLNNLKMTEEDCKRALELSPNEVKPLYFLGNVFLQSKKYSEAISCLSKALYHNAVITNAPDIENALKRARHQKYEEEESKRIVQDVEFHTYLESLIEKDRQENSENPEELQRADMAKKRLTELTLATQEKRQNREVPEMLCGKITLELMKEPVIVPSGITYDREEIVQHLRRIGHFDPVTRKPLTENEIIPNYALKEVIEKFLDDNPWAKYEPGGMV

B1: 6xHis::UFD-2^P951A (enzyme, C. elegans, UniProt Q09349 1-984, looked up)
chain: MIEDEKAGLQPMDISDASVFFFQADVESKDFLTSLFDCEGKSDDRMLRYADAIIDVQNLNFDVSPQCLQSNIAEIITKFVLLSQDGSRRGLSRSFNFIDPDIIAGCREEDAIEFLLINFVRCHHELGKSGTSNCYKKTLESTRKAVFSVFVMIQRGYLESQLRSQHASLVFTKRLLEDTVSNVFLRTLVEYLASTDECDEDAITETFNPIFGILRSGIICQRFEDNKDEIVRQILRVMNLLLSIRLPSNGPRPLSNLLVNREDFLPTPSEKIQGREFGLMSFLGPFFSYGLESSARRPNHRVFVDCEEDARKYDGSVNTEQKLYFQRMDPIRTMLHQLMLPLASDQGSRNKTLRWIATIISTNDIRTRSHYDPSDVLCDHYMTNFLSVMYMFSEKIDLSKIIVDYPFLPSSLINISKETRLKMDESGAVAFASQFADRPDEYHFSTVCFFLTIAAQRLVIPPLMNQISEYSRHLKELKHKINALKEKLNTVSGFERAEVEKKLNYETEHWKLMSRHLLCVKTQAQDPALMASSMDFVDKQMKFILNLLCDNLDLLGDDSQLPTEVSQMFCALPEYFLEDALDFYIFAISNGMKLLMERNADWISRLTVLFTQYHYIKSPFLVSKLVRVLSSIQPPLWFNVVRLRMAQENLLMCMIKFYSDFEDNGDFYEKFNVRGNIQYMLEKMEEDMFYKGKFMDMARECGAEFIRFVNMVINDATWCIDESLSGLKSIHDVEKKMANKVEWDNTDQEIRNQDLGVYEEAKRKVKGWLGTAKSNLKLLLSITVNSPEPFRTPVLGERLAAMLNHNLSQLIGSKASELKVKDPRSYGWEPREFVSLLISIYLKLNMPAFVKYIAYDERTYSPEFFHNAIECMRKNSIVGFSQLESFEHLAEDVKKEYEAKAELEEEYDDVPEEFKDPIMDAIMVDPVKLPSGHVMDRAVIERHLLSTPNNAFNRAPLSHNELSPDSELKAKIQEWICQKRNSKK
Turning to B1, in test [1], the “discharge of Ub-charged UBE2D1 by CHN-1, alone or mixed with UFD-2^P951A” value was ≥ 2 fold.

B2: 6xHis::Ufd2p (enzyme, S. cerevisiae, UniProt P54860 1-961, looked up)
chain: MTAIEDILQITTDPSDTRGYSLLKSEEVPQGSTLGVDFIDTLLLYQLTENEKLDKPFEYLNDCFRRNQQQKRITKNKPNAESLHSTFQEIDRLVIGYGVVALQIENFCMNGAFINYITGIVSNVNSYTDFLSQIIQRAILEGTALDLLNAVFPTLLEYCNKHVSHFDLNESVIYNNVLTIFELFVTFKPIAEIFTKIDGFFADYSCKPQDFERKTILGPILSLSPIEAAVAIRNYGDNLLRSKQQTAMIHESLQAEHKVVIDRLFFIVDKLVRGSLNSRTDMISYFAHIANKNHLRRADHPPFKELSSNGFMSNITLLLVRFSQPFLDISYKKIDKIDANYFNNPSLFIDLSGETRLNSDFKEADAFYDKNRKTADSKPNFISDCFFLTLTYLHYGLGGTLSFEEKMGSEIKALKEEIEKVKKIAANHDVFARFITAQLSKMEKALKTTESLRFALQGFFAHRSLQLEVFDFICGASTFLIRVVDPEHEFPFKQIKLPLIPDQIGVENVDNADFLRAHAPVPFKYYPEFVVEGPVNYSLYISKYQTSPIFRNPRLGSFVEFTTMVLRCPELVSNPHLKGKLVQLLSVGAMPLTDNSPGFMMDIFEHDELVNKNLLYALLDFYVIVEKTGSSSQFYDKFNSRYSISIILEELYYKIPSYKNQLIWQSQNNADFFVRFVARMLNDLTFLLDEGLSNLAEVHNIQNELDNRARGAPPTREEEDKELQTRLASASRQAKSSCGLADKSMKLFEIYSKDIPAAFVTPEIVYRLASMLNYNLESLVGPKCGELKVKDPQSYSFNPKDLLKALTTVYINLSEQSEFISAVAKDERSFNRNLFVRAVDILGRKTGLASPEFIEKLLNFANKAEEQRKADEEEDLEYGDVPDEFLDPLMYTIMKDPVILPASKMNIDRSTIKAHLLSDSTDPFNRMPLKLEDVTPNEELRQKILCFKKQKKEEAKHKASE
notes: Ufd2p, S. cerevisiae; from pET28a-6xHis::Ufd2p; The plasmid is from Liu et al (2017); also called S. cerevisiae Ufd2p; His-tagged Ufd2p; source: bacterial expression system, purified; not shown: 6xHis, N-terminal, kept
B2: in test [2], the binding result is “binds”.
